# Measured values as given in PMC5512577 (2016).
# B1: full-length Arl2, C-terminal histidine-tagged, bound to GppNHp or mantGppNHp (natural protein)
# chain: MGLLTILKKMKQKERELRLLMLGLDNAGKTTILKKFNGEDVDTISPTLGFNIKTLEHRGFKLNIWDVGGQKSLRSYWRNYFESTDGLIWVVDSADRQRMQDCQRELQSLLVEERLAGATLLIFANKQDLPGALSCNAIQEALELDSIRSHHWRIQGCSAVTGEDLLPGIDWLLDDISSRVFTAD
# B2: N-terminally truncated Arl2 (aa 17-178), bound to mantGppNHp (domain or fragment)
# chain: LRLLMLGLDNAGKTTILKKFNGEDVDTISPTLGFNIKTLEHRGFKLNIWDVGGQKSLRSYWRNYFESTDGLIWVVDSADRQRMQDCQRELQSLLVEERLAGATLLIFANKQDLPGALSCNAIQEALELDSIRSHHWRIQGCSAVTGEDLLPGIDWLLDDISS
# Target: phosphodiesterase 6 delta subunit (PDE6δ), N-terminal histidine-tagged (UniProt O43924 1-150)
# Experiment: FP; mantGppNHp-loaded Arl; stopped-flow
# Chain of phosphodiesterase 6 delta subunit (PDE6δ), N-terminal histidine-tagged (O43924 whole entry, stated change not applied): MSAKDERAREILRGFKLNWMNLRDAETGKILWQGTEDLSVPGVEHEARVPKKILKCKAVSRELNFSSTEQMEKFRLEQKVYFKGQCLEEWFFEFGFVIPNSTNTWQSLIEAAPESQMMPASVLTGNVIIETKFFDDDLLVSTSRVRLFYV
row,Binder,koff
1,B1,0.33 s⁻¹
2,B2,0.98 s⁻¹
